The values below come from US20220273713A1, “METHOD OF INHIBITING OR ACTIVATING GAMMA DELTA T CELLS” (The University of Melbourne, priority 2019, published 2022).

One assay relates to PBMCs. The assay is described as follows: Luminex (PBMCs): cytokine/chemokine expression in freshly isolated PBMCs. Format: cell-based, human. The procedure: Blood from a healthy donor (Red Cross Australia) was ficolled, PBMC layer collected, washed and 5×10^5 cells were treated with the indicated antibodies in duplicates @ 10 μg/ml in 500 ul TCRPMI supplemented with 100u/ml IL-2 and incubated at 37 degrees C. and 5% CO2 for 16 hrs. Supernatants were collected and submitted for Luminex Human 20-plex Inflammation panel analysis (EPX200-12185-901) to Crux Biolabs (Scoresby, VIC, Australia). This measures the following analytes: GM-CSF; ICAM-1, IFN-α; IFN-g, IL-1α, IL-1b, IL-10, IL-12p70, IL-13, IL-17A, IL-4, IL-8, IP-10, MCP-1, IL-6, MIP-1α, MIP-1b, sE-selectin, sP-Selectin, TNF-α. All samples were run with appropriate controls and standards. Treatment with antibody 259 was only performed in one well.

The subject of assay [1] is LM-MEL-62 and LM-MEL-75 melanoma cells. The assay is described as follows: Tumor killing/inhibition assay: γδ T cells with melanoma cells 2:1, MTS and CD25. Format: cell-based, human. The note with it: γδ T cells : melanoma cells 2:1, three days, antibody 10 ug/ml. The procedure: In the following experiments, γδ T cells were enriched by MACS using PE-Cy7-conjugated anti-γδTCR followed by anti-phycoerythrin-mediated magnetic bead purification (Miltenyi Biotec). After enrichment CD3^+ Vδ2^+γδ T cells were further purified by sorting using an Aria III (BD). […] LM-MEL-62 and LM-MEL-75 melanoma cells were plated out 1×10^4 per well in a 96 well flat-bottom plate In RPMI1640 media supplemented with 10% FBS and left to adhere overnight. […] All conditions were repeated in triplicate. Cells were incubated at 37 degrees and on day 3 Vd2+ cells were acquired by flow cytometry. Live cells were gated and activation determined by analysis of CD25 expression. Melanoma cell viability was determined by MTS assay. MTS reagent was added to RPMI media at a 1:5 ratio and 100 ul added per well. Cells were incubated at 37 degrees for 30 minutes and the plate was read on a Spectrostar nano plate reader at 490 nm. […] Cultures were performed with γδ T cells and melanoma cells (LM-MEL-75 or LM-MEL-62) in a 2:1 ratio.

Another assay has as its target T1, BTN2A2 (Homo sapiens, UniProt Q8WVV5).
T1 sequence (Q8WVV5 33-265 limits assumed): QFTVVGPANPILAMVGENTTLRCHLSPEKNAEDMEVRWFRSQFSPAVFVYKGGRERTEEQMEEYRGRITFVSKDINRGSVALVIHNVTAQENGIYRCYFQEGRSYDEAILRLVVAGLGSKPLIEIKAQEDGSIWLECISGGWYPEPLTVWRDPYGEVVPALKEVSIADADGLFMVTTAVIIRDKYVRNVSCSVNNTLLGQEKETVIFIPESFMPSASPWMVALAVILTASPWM
The assay can be described thus: Cross-reactivity of anti-BTN2A1 mAb to BTN2A2 (ELISA, transfected cells). Format: binding. As to the method:
Purified recombinant proteins (0.2-20 μg/ml) were immobilized in microplate wells in PBS buffer overnight at 4° C. Non-specific binding was then blocked by incubation in PBS containing 0.05% tween 20 plus 5% skim milk powder or 0.5% (w/v) bovine serum albumin (BSA). The wells were then incubated for 60 minutes at room temperature in the presence of antibodies at 2-5 μg/mL in PBS/0.05% tween-20/2% skim milk powder or 0.5% BSA, followed by washing in PBS/0.05% tween-20. Plates were then incubated with HRP-labelled sheep anti-mouse IgG secondary antibody (Chemicon), or goat anti-mouse IgG secondary antibody (Millipore) followed by detection using 3,3′,5,5′-tetramethylbenzidine substrate (Sigma) and absorbance was measured at 450 nm using a plate reader.
In general terms: In an ELISA, binding on a coated surface is turned into a signal by an enzyme label.

The subject of the next assay is γδ T cells. The assay is described as follows: Identification of BTN2A1 agonistic antibodies: CD25 and interferon γ of expanded γδ T cells. Format: cell-based, human. The following applies: 10 μg/ml antibody overnight, vs isotype control BM4. The procedure: In some experiments γδ T cells were enriched by MACS using PE-Cy7-conjugated anti-γδTCR followed by anti-phycoerythrin-mediated magnetic bead purification (Miltenyi Biotec). After enrichment CD3+Vδ2+ γδ T cells were further purified by sorting using an Aria III (BD). Enriched γδ T cells were stimulated in vitro for 48 h with plate-bound anti-CD3ε (OKT3, 10 ug/ml, Bio-X-Cell), soluble anti-CD28 (CD28.2, 1 ug/ml, BD Pharmingen), phytohemagglutinin (0.5 μg/ml, Sigma), IL-15 (50 ng/ml), and recombinant human IL-2 (100 U/ml, PeproTech), followed by maintenance with IL-2 and IL-15 for 14-21 d. Cells were cultured in complete medium consisting of a 50:50 (v/v) mixture of RPMI-1640 and AIM-V (Invitrogen) supplemented with 10% (v/v) FCS (JRH Biosciences), penicillin (100 U/ml), streptomycin (100 μg/ml), Glutamax (2 mM), sodium pyruvate (1 mM), nonessential amino acids (0.1 mM), and HEPES buffer (15 mM), pH 7.2-7.5 (all from Invitrogen Life Technologies), plus 50 μM 2-mercaptoethanol (Sigma-Aldrich).
The inventors screened the panel of antibodies specific for BTN2A1, as described above, to identify those able to agonise BTN2A1. The inventors assessed the ability of anti-BTN2A1 antibodies to activate γδ T cells. The inventors assessed upregulation of CD25 on the surface of previously expanded γδ T cells following culturing the cells with 10 μg/ml anti-BTN2A1 antibodies or isotype control antibody (BM4) overnight.
The inventors additionally measured levels of interferon γ secreted by γδ T cells following culture in the presence of 10 μg/ml anti-BTN2A1 antibodies or isotype control antibody (BM4) overnight. Interferon γ secretion is another indicator of TCR-dependent activation.

The next assay relates to Vγ9Vδ2 cells. The assay can be described thus: Flow cytometry: CD25 on Vγ9Vδ2 cells without phosphoantigen or APCs. Format: cell-based, human. The following applies: no addition of APCs or phosphoantigen; listed as 259. The text has this: Vγ9Vδ2 cells were stained for CD3, Vδ2, CD25 and live dead viability dye as previously described and analysed on a Canto flow cytometer (BD). Cells were gated on lymphocytes, single cells, live cells, CD3+ Vδ2+, and activation determined based on CD25 expression.
For orientation: Flow cytometry measures light scatter and fluorescence of single cells or particles in a stream.

The mark [2] stands for this setting: PBMCs from a healthy donor, antibodies 10 μg/ml, 16 hrs, duplicates, 259 one well.

“Also recorded” adds a separate entry of the source.

B1: antibody 259: agonistic anti-BTN2A1 antibody; VL SEQ ID NO: 156, VH SEQ ID NO: 160 (antibody, V domains shown)
VH: EVQLLESGGGLVQPGGSLRLSCAASGFTFSSYAMQWVRQAPGKGLEWVSRIGPSGGGTMYADSVKGRFTISRDNSKNTLYLQMNSLRAEDMAVYYCARDLGGLSVLFDYWGQGTLVTVSS
VL: QSELTQPPSASETPGQRVTISCSGSSSNIGSNTVSWFQQLPGSAPRLLIYNDHRRPSGVPDRFSGSKSGTSASLVISGLQSQDEADYYCSAWDDSLNGVVFGGGTKLTVL
modifications: amino acid sequence of the VH of antibody 259; amino acid sequence of the VL of antibody 259
For B1, in the assay with PBMCs (setting [2]), the ICAM-1 turned out to be 1578.36 pg/mL, the IFNγ was found to be 104.96 pg/mL, the IL-1α stood at 8.7 pg/mL and the IL-1β came out at 5.19 pg/mL. In the assay on PBMCs (setting [2]), this molecule showed an IL-6 of 462.59 pg/mL, an IL-8 of 495.89 pg/mL, an IL-10 of 49.99 pg/mL and an IL-17A of 24.59 pg/mL. Moreover, in the assay on PBMCs (setting [2]), the IP-10 worked out at 641.08 pg/mL, the MCP-1 was 1023.7 pg/mL, the MIP-1α was determined as 131.71 pg/mL and the MIP-1β turned out to be 584.34 pg/mL. Further, the sE-selectin in the assay on PBMCs (setting [2]) came out at 327.64 pg/mL. For the same molecule, the TNFα levels result in the assay with PBMCs (full PBMC) is on record as “no increase”. In the assay on PBMCs (full PBMC, vs isotype), the “IL-8 (CXCL8), CCL2 (MCP-1) and IL-6” value was “up-regulated”; the “expression of IFNγ and sE-Selectin” value is recorded as “increased expression”. In addition, in assay [1], the “CD25 level of expression on γδ T cells in co-culture” value is “upregulated”. In addition, the “cross-reactivity to BTN2A2” value in the assay with BTN2A2 is “not cross-reactive”. Also, in the assay on γδ T cells, the “level of secreted interferon γ” value was “increase the level of secreted interferon γ” and the “percentage of γδ T cells expressing CD25” value was “increase the percentage of γδ T cells expressing CD25”. In addition, in the assay with Vγ9Vδ2 cells, the “activation of Vγ9Vδ2 cells by CD25 upregulation” value is “higher activation potential; also recorded: can mimic phosphoantigen mediated activation to various degrees”.
